According to the supplement of paper PMC9170038:

Test system: MS2 coat protein
Experiment: apparent KD of MS2 coat protein; higher = weaker reporter binding
Details: Eterna round: R107
Method: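 RNA-MaP round R107: designed RNA switches with theophylline, tryptophan, arginine or FMN aptamers are transcribed on-chip within common flanks. They are titrated with SNAP-549-labelled MS2 coat protein in RNA-MaP buffer (100 mM Tris pH 7.5, 80 mM KCl, 4 mM MgCl2), without ligand or with the indicated ligand. Median apparent KD per design.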

[1] = input ligand: theophylline 20 uM
[2] = input ligand: theophylline 2 mM
[3] = input ligand: tryptophan 2.4 mM

| Sequence | apparent KD of MS2 coat protein (input ligand: arginine 13.2 mM) [µM] | apparent KD of MS2 coat protein (input ligand: none) [µM] | apparent KD of MS2 coat protein [1] [µM] | apparent KD of MS2 coat protein [2] [µM] | apparent KD of MS2 coat protein [3] [µM] |
| --- | --- | --- | --- | --- | --- |
| ACAUUUAACUGAAGGAGCGUGAUUAACAUGAGGAUCACCCAUGUAACUUAGAUGCUUAUAUCACAGGUAGGUCGCAGACUAAUGA [JR_ExcArginiB_Sub011] | 0.0139 | 0.0136 | 0.0183 | 0.0149 | 0.0155 |
| ACCUACACGGAGACGUGUAGGAGUAAUGAUACCAGCAUGGAGACAUGCCCUUGGCAGCGUUACAUGAGGAUCACCCAUGUAGGUU [ETHA #4] | 0.0433 | 0.0436 | 0.059 | 0.0788 | 0.0431 |
| ACCUACACGGAGACGUGUAGGAGUAAUGAUACCAGCAUGGAGACAUGCCCUUGGCAGCGUUACAUGAGGAUCACCCAUGUAGUGC [ETHA #5] | 0.0104 | 0.0107 | 0.0142 | 0.0128 | 0.0129 |
| ACCUGCGUUUGAUUCUAUCUGACGCAGGUUCGAGGACCGGUACGGCCGCCACUCGGACAUGAGGAUCACCCAUGUUUGACAUGGG [#03 Exclusion Tryptophan A] | 0.0278 | 0.121 | 0.608 | 0.186 | 0.0927 |
| ACCUGUACGAAAAGUGCAGGACACGAAUAACGAGGACCGGUACGGCCGCCACUCGGAAAAUAACCUGAGGAUCACCCUGGUCGUG [TrypAS 7 #AlternativeMS2 #Zipper #StaticStem] | 0.0295 | 0.0316 | 0.0375 | 0.0401 | 0.0339 |
| ACGAACGAUAGUGAUACCAGACGUACAUGAGGAUCACCCAUGUUGUAAACAUGGUUAAUAGUCCCUUGGCAGCACGAUAAGUUCG [JR_ExcTheophyB_Sub003] | 0.104 | – | 0.53 | – | 0.802 |
| ACGAACUGUAGUGAUACCAGACGUACAUGAGGAUCACCCAUGUUGUAAACAUGGUGAAUAGUCCCUUGGCAGCACAGUUAGUUCG [#11 Exclusion-TheophyllineB] | 0.162 | – | 0.355 | – | 0.299 |
| ACGAACUGUAGUGAUACCAGACGUACAUGAGGAUCACCCAUGUUGUAAACAUGGUUAAUAGUCCCUUGGCAGCACAGUUAGUUCG [JR_ExcTheophyB_Sub002] | 0.105 | – | 0.612 | – | 0.695 |
| ACGACGCAUAGUGAUACCAGCACAACAUGAGGAUCACCCAUGUCACUUAUGUAGUAAUAAUGCCCUUGGCAGCACUAUGCGUCAG [SSTheo B #1] | 0.0407 | – | 0.0663 | – | 0.0526 |
| ACGACGCAUAGUGAUACCAGUAGAACAUGAGGAUCACCCAUGUCUGUGACGCACAAACUCUGCCCUUGGCAGCACUAUGCGUCAG [SSTheo B #7] | 0.012 | – | 0.0159 | – | 0.0122 |
| ACGACGCAUAGUGAUACCAGUAGAACAUGAGGAUCACCCAUGUCUGUGACGCACAAAUUCUGCCCUUGGCAGCACUAUGCGUCAG [SSTheo B #6] | 0.0126 | – | 0.0181 | – | 0.0121 |
| ACGAUACGACAUGAGGAUCACCCAUGUGAUACCAGCCUGGAAACAGGCCCUUGGCAGCACAAAUACUCCAGAAACGUAUCGAAAA [MAT - Exclusion Theophlline A - Mod of Eli - D6] | 0.0649 | – | 0.262 | – | 0.156 |
| ACGAUAGCACACGAGGAUCACCCGUGUGAUACCAGCCUGGAAACAGGCCCUUGGCAGCACACAAUAAAAGUGUAACUAUCGAAUA [TheoAX4 #MicroSwitchBubble #AlternativeMS2] | 0.0402 | 0.0542 | 0.128 | 0.161 | 0.0561 |
| ACGCCCAGGUAGGCUUAGUGGGAUAUGGAAGGAGCGCCGAUGCAGGCAGGUAGGUCGCCAUAGAACAUGAGGAUCACCCAUGUAA [#05 Same State - Arginine A] | 0.0313 | 0.0328 | 0.0379 | 0.0331 | 0.0271 |
| ACGCCCGCCUCACAUGAGGAUCACCCAUGUCGAGGACCGGUACGGCCGCCACUCGUCGUCGGUAAUACGGGCGUUGAAUAAUAUA [Atedon] | 0.0118 | – | 0.0149 | 0.0144 | – |
| ACGGAUCGGAAACGAUCCGCGGCGAGGGUGCGAGGACCGGUACGGCCGCCACUCGGCUAACAUGAGGAUCACCCAUGUCCGAAGA [ETA NuPACK+Vienna+Vienna2 #9] | 0.0436 | 0.126 | 0.137 | 0.117 | 0.172 |
